Read-outs that look alike come from different tables or passages of the source. Square brackets hold non-standard residues; d marks the D form. Peptide text beside a SMILES is read from it. * marks the point of attachment. HYNIC = NNc1ccc(C(=O)*)cn1; AEEA = NCCOCCOCC(=O)O
Key:
[1] = tested on: MT1-MMP-positive MDA-MB-231 tumor; test: SPECT imaging of MDA-MB-231 tumor-bearing mice; type: in vivo; conditions: mean ± SD; for tumor uptake (SPECT ROI), blocking: 200 μg unlabeled AF7P injected 30 min ahead of tracer; for tumor uptake (SPECT ROI), unblocked: i.v.
Procedure: (§1) All animal experiments were approved by Jilin University Health Science Center Animal Care and Use Committee. Human breast carcinoma cell line MDA-MB-231 with high MT1-MMP expression and human lung adenocarcinomaepithelial cell line A549 with low MT1-MMP expression were cultured in DMEM medium containing 10% (v/v) fetal bovine serum (Invitrogen) supplemented with penicillin (100 μg/mL) and streptomycin (100 μg/mL) at 37°C with 5% CO2. MDA-MB-231 and A549 tumor models were established by subcutaneous injection of 5×10^6 cells into the upper right front flank of female athymic nude mice (Department of Experimental Animal, Peking University Health Science Center). Tumor growth was monitored by caliper measurements three times a week after the tumors are palpable. The mice were used for SPET/CT imaging when the tumor volume reached about 200 mm3 (about 14 days after tumor inoculations). The tumor volume was determined as the formula: V = a × (b^2)/2, where a and b are the length and width of each tumor in mm respectively. During the injection and image acquisition process, the mice were anesthetized with 2.5% isoflurane in oxygen delivered at a flow rate of 1.5 L/min.
The imaging study was performed using the female BALB/c nude mice bearing the MDA-MB-231 tumors and A549 tumors. Each tumor-bearing mouse was administered intravenously with [^99mTc]-(HYNIC-AF7P)(tricine)(TPPTS) (22.2 MBq/mice) in 0.1 mL saline. For blocking test, 200 μg free AF7P was intravenously injected into MDA-MB-231 tumor bearing mice 30 min before [^99mTc]-(HYNIC-AF7P)(tricine)(TPPTS) was injected. Animals were placed prone on a two-head γ-camera (SIEMENS, E. CAM) equipped with a parallel-hole, low-energy, and high-resolution collimator. Posterior images were acquired at 0.5, 2 and 4 hours post injection (p.i.). The acquisition count limits were set at 700k. After completion of imaging, animals were sacrificed by cervical dislocation.

[2] = In vivo biodistribution study (ex vivo organ counting); set-up: species or system mice; conditions: female, mouse, iv, total radioactivity, mean ± SD, n = 3; for tissue uptake at 0.5 h: 0.5h after i.v.; for tissue uptake at 1 h: 1h after i.v.; for tissue uptake at 2 h: 2h after i.v.; for tissue uptake at 4 h: 4h after i.v.
Procedure: as §1
Animals were divided into 4 groups (n = 3) for 4 time points with approximately equal distribution of tumor sizes on the day before the study. At 0.5, 1, 2, and 4 h after intravenous administration of [^99mTc]-(HYNIC-AF7P)(tricine)(TPPTS), MDA-MB-231 tumor bearing mice were euthanized. […] The organ uptake was calculated as a percentage of the injected dose per gram of wet tissue (%ID/g).

[3] = BALB/c nude, blood, read-out: Blood uptake
[4] = BALB/c nude, bone, read-out: Bone uptake
[5] = BALB/c nude, heart, read-out: Heart uptake
[6] = BALB/c nude, kidney, read-out: Kidney uptake
[7] = BALB/c nude, liver, read-out: Liver uptake
[8] = BALB/c nude, lung, read-out: Lung uptake
[9] = BALB/c nude, muscle, read-out: Muscle uptake
[10] = BALB/c nude, spleen, read-out: Spleen uptake
[11] = athymic nude, intestine, read-out: Intestine uptake
[12] = athymic nude, pancreas, read-out: Pancreas uptake

## CC(C)C[C@H](NC(=O)[C@H](Cc1ccccc1)NC(=O)[C@@H](NC(=O)[C@H](CCCCN)NC(=O)[C@@H](NC(=O)[C@H](CC(N)=O)NC(=O)[C@H](Cc1c[nH]cn1)NC(=O)[C@H](CC(C)C)NC(=O)[C@H](Cc1c[nH]cn1)NC(=O)[C@H](CCCCN)NC(=O)[C@H](Cc1c[nH]c2ccccc12)NC(=O)[C@H](Cc1c[nH]cn1)NC(=O)c1ccc(NN)nc1)[C@@H](C)O)[C@@H](C)O)C(=O)NCCOCCOCC(=O)O [[^99mTc]-(HYNIC-AF7P)(tricine)(TPPTS), metal not drawn] ({HYNIC}-HWKHLHNTKTFL[AEEA]-OH)
[1]; 0.5 h p.i.
  tumor uptake (SPECT ROI), blocking: 1.15±0.05 %ID/g
  tumor uptake (SPECT ROI), unblocked: 4.15±0.27 %ID/g
[1]; 2 h p.i.
  tumor uptake (SPECT ROI), blocking: 1.05±0.12 %ID/g
  tumor uptake (SPECT ROI), unblocked: 2.58±0.21 %ID/g
[1]; 4 h p.i.
  tumor uptake (SPECT ROI), blocking: 1.03±0.34 %ID/g
  tumor uptake (SPECT ROI), unblocked: 1.59±0.11 %ID/g
[2]; [3]
  tissue uptake at 0.5 h: 0.36 ± 0.02 %ID/g
  tissue uptake at 1 h: 0.28 ± 0.01 %ID/g
  tissue uptake at 2 h: 0.2 ± 0.01 %ID/g
  tissue uptake at 4 h: 0.19 ± 0.01 %ID/g
[2]; [4]
  tissue uptake at 0.5 h: 0.8 ± 0.04 %ID/g
  tissue uptake at 1 h: 0.58 ± 0.03 %ID/g
  tissue uptake at 2 h: 0.44 ± 0.02 %ID/g
  tissue uptake at 4 h: 0.4 ± 0.02 %ID/g
[2]; [5]
  tissue uptake at 0.5 h: 2.28 ± 0.16 %ID/g
  tissue uptake at 1 h: 1.67 ± 0.2 %ID/g
  tissue uptake at 2 h: 0.98 ± 0.07 %ID/g
  tissue uptake at 4 h: 0.64 ± 0.04 %ID/g
[2]; [6]
  tissue uptake at 0.5 h: 8.86 ± 0.48 %ID/g
  tissue uptake at 1 h: 7.42 ± 0.43 %ID/g
  tissue uptake at 2 h: 4.84 ± 0.19 %ID/g
  tissue uptake at 4 h: 4.33 ± 0.2 %ID/g
[2]; [7]
  tissue uptake at 0.5 h: 5.22 ± 0.17 %ID/g
  tissue uptake at 1 h: 3.9 ± 0.32 %ID/g
  tissue uptake at 2 h: 2.89 ± 0.11 %ID/g
[2]; [8]
  tissue uptake at 0.5 h: 2.11 ± 0.06 %ID/g
  tissue uptake at 1 h: 1.45 ± 0.18 %ID/g
  tissue uptake at 2 h: 1.01 ± 0.03 %ID/g
  tissue uptake at 4 h: 0.7 ± 0.09 %ID/g
[2]; [9]
  tissue uptake at 0.5 h: 0.9 ± 0.06 %ID/g
  tissue uptake at 1 h: 0.68 ± 0.09 %ID/g
  tissue uptake at 2 h: 0.53 ± 0.04 %ID/g
  tissue uptake at 4 h: 0.52 ± 0.04 %ID/g
[2]; [10]
  tissue uptake at 0.5 h: 0.9 ± 0.07 %ID/g
  tissue uptake at 1 h: 0.71 ± 0.06 %ID/g
  tissue uptake at 2 h: 0.56 ± 0.06 %ID/g
  tissue uptake at 4 h: 0.41 ± 0.02 %ID/g
[2]; [11]
  tissue uptake at 0.5 h: 1.91 ± 0.05 %ID/g
  tissue uptake at 1 h: 1.61 ± 0.07 %ID/g
  tissue uptake at 2 h: 1.52 ± 0.12 %ID/g
  tissue uptake at 4 h: 1.14 ± 0.08 %ID/g
[2]; athymic nude, liver, read-out: Liver uptake
  tissue uptake at 4 h: 2.55 ± 0.1 %ID/g
[2]; [12]
  tissue uptake at 0.5 h: 0.77 ± 0.02 %ID/g
  tissue uptake at 1 h: 0.52 ± 0.03 %ID/g

Reference: article PMC4593522, “Development of a Radiolabeled Peptide-Based Probe Targeting MT1-MMP for Breast Cancer Detection” (PLoS ONE, 2015)
